Data on 1 substance can be found in patent CN116744966A.

The target of the assay is SARS-CoV-2 spike protein (wild type) on pseudovirus (SARS-CoV-2) (UniProt P0DTC2). Nature of the assay: cell-based or functional assay.

“ACE2-Ig (positive control of the pseudovirus neutralisation assay) (Fc fusion)” showed an IC50, pseudovirus neutralisation (positive control) of 0.9 µg/mL.
